Like-named read-outs stand apart in the source and are kept apart here. One block for each molecule: values may come before it. Non-standard residues stand in square brackets, D forms with d. No end group written: not given here. Nle = CCCC[C@H](N)C(=O)O
Tests used:
[1] = target: T1, human PTH/PTHrP receptor (PTH1 receptor) (human, UniProt Q03431 27-593); experiment: cell-based or functional assay
T1 sequence (looked up): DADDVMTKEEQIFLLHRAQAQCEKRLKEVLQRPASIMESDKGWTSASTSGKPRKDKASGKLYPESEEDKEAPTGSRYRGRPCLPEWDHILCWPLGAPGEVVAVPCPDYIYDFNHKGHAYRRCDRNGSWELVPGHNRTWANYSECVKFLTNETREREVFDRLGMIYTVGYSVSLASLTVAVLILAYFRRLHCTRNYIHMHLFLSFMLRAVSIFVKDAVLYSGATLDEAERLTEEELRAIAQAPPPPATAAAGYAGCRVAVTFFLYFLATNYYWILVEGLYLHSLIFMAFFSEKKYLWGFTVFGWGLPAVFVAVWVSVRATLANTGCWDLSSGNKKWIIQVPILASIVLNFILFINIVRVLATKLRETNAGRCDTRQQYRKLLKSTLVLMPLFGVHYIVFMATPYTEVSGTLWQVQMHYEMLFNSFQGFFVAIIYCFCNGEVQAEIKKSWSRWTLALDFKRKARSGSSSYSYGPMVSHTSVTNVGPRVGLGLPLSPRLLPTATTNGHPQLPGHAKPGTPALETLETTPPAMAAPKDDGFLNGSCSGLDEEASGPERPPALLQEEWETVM

[2] = target: T1, human PTH/PTHrP receptor (PTH1 receptor); experiment: competition of 125I-(Tyr36)hPTHrP-(1-36)NH2 binding, SaOS-2 membranes, 30 C, 60 min
[3] = target: T1, human PTH/PTHrP receptor (PTH1 receptor); experiment: competition of 125I-(Tyr36)hPTHrP-(1-36)NH2 binding, human renal cortical membranes, 30 C, 30 min
[4] = target: T1, human PTH/PTHrP receptor (PTH1 receptor); experiment: cell-based or functional assay; remark: listed apart in the source
[5] = target: T1, human PTH/PTHrP receptor (PTH1 receptor); experiment: cell-based or functional assay; remark: listed apart in the source
[6] = target: T1, human PTH/PTHrP receptor (PTH1 receptor); experiment: competition of 125I-(Tyr36)hPTHrP-(1-36)NH2 binding, intact SaOS-2 cells, 15 C, 150 min
[7] = target: T1, human PTH/PTHrP receptor (PTH1 receptor); experiment: competition of 125I-(Tyr36)hPTHrP-(1-36)NH2 binding, human renal cortical membranes, 30 C, 30 min
[8] = target: T1, human PTH/PTHrP receptor (PTH1 receptor); experiment: as above; remark: listed apart in the source
[9] = target: T2, canine renal PTH/PTHrP receptor (canine, UniProt Q9TU31 29-595); experiment: cell-based or functional assay
T2 sequence (looked up): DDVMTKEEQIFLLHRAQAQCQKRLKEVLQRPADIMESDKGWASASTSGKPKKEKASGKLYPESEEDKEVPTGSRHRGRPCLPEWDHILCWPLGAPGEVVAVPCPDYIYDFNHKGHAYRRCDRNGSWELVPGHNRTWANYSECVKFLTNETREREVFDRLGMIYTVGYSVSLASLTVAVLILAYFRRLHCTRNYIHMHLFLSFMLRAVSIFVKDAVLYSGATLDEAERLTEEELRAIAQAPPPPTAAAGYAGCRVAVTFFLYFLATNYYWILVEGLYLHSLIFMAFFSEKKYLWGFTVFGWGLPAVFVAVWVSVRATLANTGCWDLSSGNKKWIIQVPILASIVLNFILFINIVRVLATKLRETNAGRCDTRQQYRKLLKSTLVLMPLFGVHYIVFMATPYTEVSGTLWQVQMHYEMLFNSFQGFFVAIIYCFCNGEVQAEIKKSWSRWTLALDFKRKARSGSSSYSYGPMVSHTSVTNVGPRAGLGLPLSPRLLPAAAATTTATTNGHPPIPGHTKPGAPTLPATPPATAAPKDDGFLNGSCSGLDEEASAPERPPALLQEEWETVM

[10] = target: T2, canine renal PTH/PTHrP receptor; experiment: competition of 125I-[Tyr36]PTHrP-(1-36)amide binding, canine renal cortical membranes, 20 C; Ki from IC50
[11] = target: T2, canine renal PTH/PTHrP receptor; experiment: competition of 125I-[Nle8,18,Tyr34]hPTH-(1-34)amide binding, canine renal cortical membranes, 20 C; Ki from IC50
[12] = target: T1, human PTH/PTHrP receptor (PTH1 receptor); experiment: cell-based or functional assay; remark: listed apart in the source
[13] = target: T1, human PTH/PTHrP receptor (PTH1 receptor); experiment: competition binding, human RCM and SaOS-2 membranes
[14] = target: T2, canine renal PTH/PTHrP receptor; experiment: competition of 125I-[Nle8,18,Tyr34]hPTH-(1-34)amide binding, canine renal cortical membranes, 20 C
Procedure: (§1) Binding assays were conducted in siliconized 12×75 mm borosilicate glass test tubes at 20° C. in a final volume of 0.2 ml. […] Binding was initiated by adding 50 μg membrane. At the end of the incubation periods described, 50 μl triplicate aliquots were layered onto 300 μl of iced binding buffer containing 1.0% BSA in 500 μl polypropylene tubes. The tubes were centrifuged at approximately 16,000×g for three min at 4° C. in a microcentrifuge. The supernatant was aspirated and the tip of the tube containing the membrane-associated radioligand was cut off. Radioactivity in both the pellet and supernatant was measured.
(§2) Dissociation constants (Kd) were determined by Scatchard analysis of the data obtained from competitive binding experiments using radioligand and increasing concentrations of unlabeled ligand. […] Statistical differences were assessed by paired Student's t test. […] Significance was determined using a partial F-test.

[15] = target: T2, canine renal PTH/PTHrP receptor; experiment: homologous competition of 125I-[Nle8,18,Tyr34]hPTH-(1-34)amide binding, canine renal cortical membranes, 20 C
Procedure: as §1, §2

[16] = target: T2, canine renal PTH/PTHrP receptor; experiment: competition of 125I-[Tyr36]PTHrP-(1-36)amide binding, canine renal cortical membranes, 20 C; printed as binding dissociation constant, heterologous competitor (Ki from IC50 by paragraph 214)
Procedure: as §1, §2

[17] = target: T1, human PTH/PTHrP receptor (PTH1 receptor); experiment: competition of 125I-(Tyr36)hPTHrP-(1-36)NH2 binding, human RCM, SaOS-2 membranes, intact SaOS-2 cells
[18] = target: T2, canine renal PTH/PTHrP receptor; experiment: competition of 125I-[Tyr36]PTHrP-(1-36)amide binding, canine renal cortical membranes, 20 C
Procedure: as §1, §2

Molecule: (Tyr^36) chicken (c) PTHrP-(1-36)amide (from UniProt P17251 38-73) (peptide)
Adenylate cyclase (EC50), SaOS cells (intact, 15 C, 60 min) [1]: 0.8 nM
Adenylate cyclase (EC50), SaOS membranes [1]: 0.87 nM
Adenylate cyclase (EC50), kidney membranes (human RCM) [1]: 0.49 nM
IC50 [2]: 1.1 nM
IC50 [3]: 0.47 nM

B1: bovine PTH-(1-34) (peptide, UniProt P01268 32-65, looked up)
peptide: AVSEIQFMHNLGKHLSSMERVEWLRKKLQDVHNF
notes: range 1-34; Synthetic, Bachem; also called bPTH-(1-34); bovine (b)PTH-(1-34)
adenylate cyclase potency against PTHrP-(1-36), standard assay (30 min, 30 C) [9]: 6 fold
adenylate cyclase stimulation against PTHrP-(1-36), binding assay conditions (20 C, 20 min, bacitracin) [9]: 15 fold
Adenylate cyclase (EC50), SaOS membranes [4]: 0.5 nM
Adenylate cyclase (EC50), SaOS cells (intact, 15 C, 60 min) [5]: 1.2 nM
Ki [10]: 10.5 nM
Ki [11]: 6.1 nM

B2: rat PTH-(1-34) (peptide, UniProt P04089 32-65, looked up)
peptide: AVSEIQLMHNLGKHLASVERMQWLRKKLQDVHNF
notes: range 1-34; Synthetic, Bachem; also called rPTH-(1-34); rat (r)PTH-(1-34)
adenylate cyclase potency against hPTHrP-(1-36), human RCM and SaOS-2 membranes [12]: 10 fold
Adenylate cyclase (EC50), SaOS membranes [4]: 0.09 nM
Adenylate cyclase (EC50), kidney membranes (human RCM) [4]: 0.05 nM
Adenylate cyclase (EC50), SaOS cells (intact, 15 C, 60 min) [5]: 0.9 nM
Adenylate cyclase (EC50), kidney membranes (human RCM) [5]: 0.05 nM
IC50 [6]: 0.9 nM

B4: bPTH-(1-84) (ligand, bovine, UniProt P01268 32-115, looked up)
chain: AVSEIQFMHNLGKHLSSMERVEWLRKKLQDVHNFVALGASIAYRDGSSQRPRKKEDNVLVESHQKSLGEADKADVDVLIKAKPQ
notes: range 1-84; From the National Hormone and Pituitary Program (NIDDK); also called bovine PTH-(1-84)
Adenylate cyclase (EC50), SaOS membranes [4]: 2.4 nM
Adenylate cyclase (EC50), kidney membranes (human RCM) [4]: 0.59 nM
Adenylate cyclase (EC50), SaOS cells (intact, 15 C, 60 min) [5]: 7.7 nM
Adenylate cyclase (EC50), kidney membranes (human RCM) [5]: 0.59 nM
fold lower relative affinity than the amino-terminal analogs [13]: ~10 fold
IC50 [2]: 8 nM
IC50 [6]: 17.5 nM
IC50 [7]: 5.1 nM
IC50 [8]: 5.1 nM

Molecule: RATSEVSPNSKPSPNTKNHPVRFGSDDEGRYLTQETNK (peptide, UniProt P12272 73-110, looked up, range 73-110; Solid phase synthesis) [hPTHrP-(37-74)]
binding result [17]: no binding

The remaining lines, values ahead:

Adenylate cyclase (EC50), SaOS membranes [4]: 1.9 nM
Adenylate cyclase (EC50), kidney membranes (human RCM) [4]: 1.1 nM
Adenylate cyclase (EC50), SaOS cells (intact, 15 C, 60 min) [5]: 2.3 nM
Adenylate cyclase (EC50), kidney membranes (human RCM) [5]: 1.1 nM
IC50 [2]: 2 nM
IC50 [6]: 2.8 nM
IC50 [7]: 3.6 nM
IC50 [8]: 3.6 nM
Molecule: SVSEIQL[Nle]HNLGKHLNS[Nle]ERVEWLRKKLQDVHNY [(Nle^8,18, Tyr^34)hPTH-(1-34)]

Adenylate cyclase (EC50), SaOS membranes [4]: 16.3 nM
Adenylate cyclase (EC50), kidney membranes (human RCM) [4]: 5.4 nM
Adenylate cyclase (EC50), SaOS cells (intact, 15 C, 60 min) [5]: 3.9 nM
Adenylate cyclase (EC50), kidney membranes (human RCM) [5]: 5.4 nM
IC50 [2]: 20 nM
IC50 [7]: 21.5 nM
IC50 [8]: 21.5 nM
B3: Chicken PTH-(1-34)amide (peptide, UniProt P15743 32-65, looked up)
peptide: SVSEMQLMHNLGEHRHTVERQDWLQMKLQDVHSA-NH2
notes: range 1-34; Solid phase synthesis; also called cPTH-(1-34)NH2

fold more potent than PTHrP-(1-36) in inhibiting binding [14]: < 2 fold
Ki [15]: 7.5 nM
Ki [16]: 8.5 nM
B5: [Nle^8,18,Tyr^34]hPTH-(1-34)amide (peptide)
peptide: SVSEIQL[Nle]HNLGKHLNS[Nle]ERVEWLRKKLQDVHNY-NH2
notes: also called NNT-hPTH-(1-34); [Nle^8,18, Tyr^34]hPTH-(1-34)NH2

binding result [18]: no binding
Molecule: SPNTKNHPVRFGSDDEGRYLTQETNK (peptide, UniProt P12272 85-110, looked up, range 49-74; Solid phase synthesis) [PTHrP-(49-74)]

binding result [18]: no binding
Molecule: CQLLHDWGGSIQDL (also called P1-peptide; P1 peptide) [(Cys^5,Trp^11,Gly^13)PTHrP-(5-18)]

Reference: US20060025342A1 (OSTEOTROPHIN, published 2006)
